The text below walks through data of patent US20220089746A1 (INSTITUT NATIONAL DE LA RECHERCHE SCIENTIFIQUE, published 2022).

The target in assay [1] is T1, recombinant human galectin-7 (human, UniProt P47929 1-136).
T1 construct: Prototypic galectin with one CRD; also called hGAL-7; human GAL-7
Briefly: ELISA of the selected nanobody clone on hGAL-7 with His-tagged MBP as control; y axis 'ELISA Ratio'; no concentration given. In general terms: In an ELISA, binding on a coated surface is turned into a signal by an enzyme label.

Assay [2] addresses T1, recombinant human galectin-7. Briefly: cell-based or functional assay.
Assay [3] has the same target. Description: cell-based or functional assay. The source holds these as a separate data set.
For assay [4] the target is unchanged. Briefly: SPR (BIACore), human GAL-7 on the sensor surface, Nb as analyte. Here is the method:
SPR analysis. Binding affinities of his-tagged GAL-7-specific Nbs was measured by surface plasmon resonance (SPR) using a BIACore® system. Briefly, a buffer flow was run across the sensor surface, which has previously been coated with human GAL-7, then the Nbs were introduced into the device and allowed to bind to the immobilized antigen. The stability of the binding between GAL-7 and the Nbs was measured and used to calculate the dissociation constant (Kd) of the Nbs for human GAL-7.
A general note: SPR reads the build-up and loss of mass on a sensor chip optically.

Assay [5] has the same target. Briefly: phage selection and ELISA (FIG. 3A).

Like-named read-outs stand apart in the source and are kept apart here.

T1 sequence (P47929 whole entry): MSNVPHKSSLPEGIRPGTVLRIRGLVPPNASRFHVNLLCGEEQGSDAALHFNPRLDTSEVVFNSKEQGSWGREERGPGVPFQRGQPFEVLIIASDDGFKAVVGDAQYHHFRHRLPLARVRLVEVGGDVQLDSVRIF

B1: Nanobody 218_B04 (VHH)
VHH: EVQLQASGGGFVQPGGSLRLSCAASGRTSSQDIMGWFRQAPGKEREFVSAISDYSGGNVYYADSVKGRFTISRDNSKNTVYLQMNSLRAEDTATYYCAFLGEEKTSWYWGQGTQVTVSS
notes: 175 aa with the tag, so CDR3 has 9 residues, which fits CDR set (a), (e) or (h)
Take B1: in assay [1], the binding result is “binds”.

B2: Nanobody 216_A01 (SEQ ID NO: 6) (VHH)
VHH: EVQLQASGGGFVQPGGSLRLSCAASGRYSRIEIMGWFRQAPGKEREFVSAISSTPSSNEYYADSVKGRFTISRDNSKNTVYLQMNSLRAEDTATYYCARWDWHSWDTYWGQGTQVTVSS
notes: Humanized synthetic single domain antibody, his-tagged, made in E. coli; 175 aa with the tag; also called NB #2
As to B2, the “IC50 (read off the curve): inhibition of hGAL-7-induced apoptosis of Jurkat T cells (Annexin V, flow cytometry)” value in assay [2] is roughly 3000 nM. Besides, in assay [3], the “IC50 (read off the curve): inhibition of hGAL-7-induced apoptosis of Jurkat T cells (Annexin V, flow cytometry)” value was roughly 2000 nM. For the same molecule, in assay [4], the dissociation constant (Kd) – broadly, the concentration at which binding is half-saturated – came out at 123 nM; the koff (in general, the first-order rate constant of dissociation) was determined as 0.00348 s⁻¹; the kon (as a rule, the second-order rate constant of association) amounted to 28400 M⁻¹ s⁻¹.

B3: Nanobody 219_A01 (VHH)
VHH: EVQLQASGGGFVQPGGSLRLSCAASGGGYDWDAMGWFRQAPGKEREFVSAISSNNNGSRYYADSVKGRFTISRDNSKNTVYLQMNSLRAEDTATYYCAADQYWGQGTQVTVSS
notes: 169 aa with the tag, so CDR3 has 3 residues
As for B3, in assay [5], the binding result was “binds”.

B4: Nanobody 218_D11 (VHH)
VHH: EVQLQASGGGFVQPGGSLRLSCAASGDTSRFDVMGWFRQAPGKEREFVSAISWWSSDHIYYADSVKGRFTISRDNSKNTVYLQMNSLRAEDTATYYCAYGEYPPRMNRRPYWGQGTQVTVSS
notes: 178 aa with the tag, so CDR3 has 12 residues, which fits CDR set (b) or (d)
Regarding B4, the binding result in assay [1] is “binds”.

B5: Nanobody 217_C02 (SEQ ID NO: 52) (VHH)
VHH: EVQLQASGGGFVQPGGSLRLSCAASGTYSSIEVMGWFRQAPGKEREFVSAISFEPNEFAYYADSVKGRFTISRDNSKNTVYLQMNSLRAEDTATYYCASSVEWRQNGKPNTASYWGQGTQVTVSS
notes: Humanized synthetic single domain antibody, his-tagged, made in E. coli; 181 aa with the tag; also called NB #12
B5: in assay [4], the Kd was found to be 1500 nM, the dissociation rate constant (koff) was determined as 0.00165 s⁻¹ and the kon worked out at 1100 M⁻¹ s⁻¹.

B6: Nanobody 216_D11 (VHH)
VHH: EVQLQASGGGFVQPGGSLRLSCAASGDTSESTSMGWFRQAPGKEREFVSAISRSSTWDAYYADSVKGRFTISRDNSKNTVYLQMNSLRAEDTATYYCAMADIFDHPQNASFMKYWGQGTQVTVSS
notes: 181 aa with the tag, so CDR3 has 15 residues, which fits CDR set (c) or (l)
On to B6, for which the binding result in assay [1] is recorded as “binds”.

B7: Nanobody 219_F02 (VHH)
VHH: EVQLQASGGGFVQPGGSLRLSCAASGSTSYSSTMGWFRQAPGKEREFVSAISFDGTSKPYYADSVKGRFTISRDNSKNTVYLQMNSLRAEDTATYYCAAGEWEALMWPPVHDFWIYYWGQGTQVTVSS
notes: 184 aa with the tag, so CDR3 has 18 residues, which fits CDR set (g) or (i)
For B7, in assay [1], the binding result is on record as “binds”.

B8: Nanobody 219_F09 (VHH)
VHH: EVQLQASGGGFVQPGGSLRLSCAASGAYSFESGMGWFRQAPGKEREFVSAISSDADLFSYYADSVKGRFTISRDNSKNTVYLQMNSLRAEDTATYYCAAFSSGGELSYWGQGTQVTVSS
notes: as for B1
With B8, in assay [1], the binding result was “binds”.

B9: Nanobody 218_A01 (VHH)
VHH: EVQLQASGGGFVQPGGSLRLSCAASGAGSRSDVMGWFRQAPGKEREFVSAISGFWGWTTYYADSVKGRFTISRDNSKNTVYLQMNSLRAEDTATYYCALGGAPGQTGYWGQGTQVTVSS
notes: as for B1
Regarding B9, in assay [1], the binding result is on record as “binds”.

B10: Nanobody 214_H05 (VHH)
VHH: EVQLQASGGGFVQPGGSLRLSCAASGTTSNSSGMGWFRQAPGKEREFVSAISWDHGILTYYADSVKGRFTISRDNSKNTVYLQMNSLRAEDTATYYCAHGYVHFNMTHRHISDYWGQGTQVTVSS
notes: Humanized synthetic single domain antibody (hs2dAb library, Hybrigenics); 181 aa with the tag, so CDR3 has 15 residues, which fits CDR set (c), (k) or (l)
Consider B10, for which, in assay [1], the binding result is reported as “binds”.

B11: Nanobody 219_H09 (VHH)
VHH: EVQLQASGGGFVQPGGSLRLSCAASGSTSYGETMGWFRQAPGKEREFVSAISYYSTRKPYYADSVKGRFTISRDNSKNTVYLQMNSLRAEDTATYYCAIVAYIYADGVRGYHQKIDYWGQGTQVTVSS
notes: as for B7
B11: the binding result in assay [1] is reported as “binds”.

B12: Nanobody 218_F09 (VHH)
VHH: EVQLQASGGGFVQPGGSLRLSCAASGTTSNGEVMGWFRQAPGKEREFVSAISFGAGSSEYYADSVKGRFTISRDNSKNTVYLQMNSLRAEDTATYYCAASWYHSSIGSMSYWGQGTQVTVSS
notes: as for B4
Consider B12, for which the binding result in assay [1] is recorded as “binds”.
